Source: publication PMC9482650, “Quantitative fragmentomics allow affinity mapping of interactomes” (Nature Communications, 2022)
Substitutions are numbered along the chain they refer to.

T1: APBA1_2, Q02410
T1 sequence (Q02410 742-832, limits assumed, looked up): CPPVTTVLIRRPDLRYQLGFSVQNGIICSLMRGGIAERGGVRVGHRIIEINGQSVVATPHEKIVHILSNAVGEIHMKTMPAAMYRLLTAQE

T2: SNTG1, Q9NSN8
T2 sequence (Q9NSN8 52-150, limits assumed, looked up): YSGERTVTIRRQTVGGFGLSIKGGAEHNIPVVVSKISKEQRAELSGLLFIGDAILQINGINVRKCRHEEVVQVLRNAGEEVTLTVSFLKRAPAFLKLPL

T3: MPP7, Q5T2T1
T3 sequence (Q5T2T1 134-230, limits assumed, looked up): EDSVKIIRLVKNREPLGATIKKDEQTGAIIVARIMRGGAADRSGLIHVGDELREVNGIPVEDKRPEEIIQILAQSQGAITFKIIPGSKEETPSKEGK

T4: PCLO, Q9Y6V0
T4 sequence (Q9Y6V0 4491-4600, limits assumed, looked up): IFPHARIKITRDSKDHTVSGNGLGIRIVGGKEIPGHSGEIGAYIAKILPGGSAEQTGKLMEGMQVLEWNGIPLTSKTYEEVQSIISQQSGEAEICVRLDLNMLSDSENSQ

T5: ARHGAP21, Q5T5U3
T5 sequence (Q5T5U3 45-169, limits assumed, looked up): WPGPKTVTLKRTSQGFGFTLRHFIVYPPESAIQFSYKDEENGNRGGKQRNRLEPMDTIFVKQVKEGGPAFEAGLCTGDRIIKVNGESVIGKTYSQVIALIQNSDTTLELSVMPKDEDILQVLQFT

T6: PDZRN3_1, Q9UPQ7
T6 sequence (Q9UPQ7 244-349, limits assumed, looked up): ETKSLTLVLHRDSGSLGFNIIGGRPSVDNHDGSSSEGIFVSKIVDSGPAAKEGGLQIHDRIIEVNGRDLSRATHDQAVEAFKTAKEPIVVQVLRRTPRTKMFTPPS

T7: APBA2_2, Q99767
T7 sequence (Q99767 654-744, limits assumed, looked up): T1 sequence (Q02410 742-832, limits assumed, looked up) with R10K, R15K, P59A, H65Q, I66A, A70S, Y84F, A89G

T8: NHERF3_1, Q5T2W1
T8 sequence (Q5T2W1 4-100, limits assumed, looked up): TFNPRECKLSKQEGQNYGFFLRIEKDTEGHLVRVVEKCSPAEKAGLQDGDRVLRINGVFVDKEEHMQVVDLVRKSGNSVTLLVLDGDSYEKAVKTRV

T9: MPP2, Q14168
T9 sequence (Q14168 180-250, limits assumed, looked up): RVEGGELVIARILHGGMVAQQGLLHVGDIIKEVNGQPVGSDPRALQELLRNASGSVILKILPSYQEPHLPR

T10: LNX2_3, Q8N448
T10 sequence (Q8N448 463-564, limits assumed, looked up): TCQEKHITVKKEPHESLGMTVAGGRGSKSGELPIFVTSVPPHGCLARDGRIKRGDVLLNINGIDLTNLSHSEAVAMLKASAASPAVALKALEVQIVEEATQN

B1: CLDN18, P56856 (peptide)
chain: QSYPSKHDYV
B2: HTR2A, P28223 (peptide)
chain: DGVNEKVSCV
B3: SRC, P12931 (peptide)
chain: EPQYQPGENL
B4: CCRL2, O00421 (peptide)
chain: REEPDHSTEV

Key:
Experiment in all cases: holdup assay
Parameters in all cases: key: below the threshold = too weak to quantify, mostly under pKd 3.1 to 4
Settings in all cases: plain residues with an end cap or a label only (N-terminal biotin on a linker: ado-ado)
GRID2IP_2, A4D2P6 = target: GRID2IP_2, A4D2P6
GRID2IP_2, A4D2P6, sequence (A4D2P6 272-370): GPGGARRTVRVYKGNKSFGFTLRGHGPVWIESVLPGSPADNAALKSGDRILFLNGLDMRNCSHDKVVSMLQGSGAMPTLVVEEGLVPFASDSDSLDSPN

LNX1_1, Q8TBB1 = target: LNX1_1, Q8TBB1
LNX1_1, Q8TBB1, sequence (Q8TBB1 261-371): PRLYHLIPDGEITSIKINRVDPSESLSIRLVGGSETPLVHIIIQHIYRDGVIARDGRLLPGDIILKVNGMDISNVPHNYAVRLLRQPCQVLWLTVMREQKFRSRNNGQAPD

APBA1_2, Q02410 = target: T1, APBA1_2, Q02410
GRIP2_6, Q9C0E4 = target: GRIP2_6, Q9C0E4
GRIP2_6, Q9C0E4, sequence (Q9C0E4 648-740): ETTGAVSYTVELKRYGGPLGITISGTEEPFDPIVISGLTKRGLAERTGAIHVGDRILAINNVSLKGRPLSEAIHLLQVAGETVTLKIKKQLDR

SNTG1, Q9NSN8 = target: T2, SNTG1, Q9NSN8
MPP7, Q5T2T1 = target: T3, MPP7, Q5T2T1
DLG1_1, Q12959 = target: DLG1_1, Q12959
LNX1_3, Q8TBB1 = target: LNX1_3, Q8TBB1
LNX1_3, Q8TBB1, sequence (Q8TBB1 500-596): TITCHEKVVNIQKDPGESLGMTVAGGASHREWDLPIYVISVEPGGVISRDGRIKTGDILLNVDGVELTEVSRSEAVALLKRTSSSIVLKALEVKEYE

FRMPD4, Q14CM0 = target: FRMPD4, Q14CM0
FRMPD4, Q14CM0, sequence (Q14CM0 67-160): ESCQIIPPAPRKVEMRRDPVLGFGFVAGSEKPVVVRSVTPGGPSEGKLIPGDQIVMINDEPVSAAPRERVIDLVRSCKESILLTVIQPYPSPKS

SCRIB_3, Q14160 = target: SCRIB_3, Q14160
SCRIB_3, Q14160, sequence (Q14160 999-1103): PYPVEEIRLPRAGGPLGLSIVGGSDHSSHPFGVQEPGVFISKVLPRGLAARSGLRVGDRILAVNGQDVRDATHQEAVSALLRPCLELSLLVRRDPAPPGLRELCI

MAGI2_5, Q86UL8 = target: MAGI2_5, Q86UL8
MAGI2_5, Q86UL8, sequence (Q86UL8 915-1017): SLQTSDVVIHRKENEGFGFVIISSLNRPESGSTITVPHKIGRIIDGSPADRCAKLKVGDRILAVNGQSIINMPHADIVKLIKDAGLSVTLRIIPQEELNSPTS

PTPN3, P26045 = target: PTPN3, P26045
PTPN3, P26045, sequence (P26045 505-587): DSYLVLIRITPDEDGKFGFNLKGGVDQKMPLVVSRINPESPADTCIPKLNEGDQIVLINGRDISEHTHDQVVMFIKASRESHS

PCLO, Q9Y6V0 = target: T4, PCLO, Q9Y6V0
DLG4_2, P78352 = target: DLG4_2, P78352
DLG4_2, P78352, sequence (P78352 155-259): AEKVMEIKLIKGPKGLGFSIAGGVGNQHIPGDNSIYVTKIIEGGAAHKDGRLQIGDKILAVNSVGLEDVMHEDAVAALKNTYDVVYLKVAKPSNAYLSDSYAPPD

TJP1_3, Q07157 = target: TJP1_3, Q07157
TJP1_3, Q07157, sequence (Q07157 416-512): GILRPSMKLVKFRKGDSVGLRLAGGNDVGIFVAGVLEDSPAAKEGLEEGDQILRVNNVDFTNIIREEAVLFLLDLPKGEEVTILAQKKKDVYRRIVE

Inadl_10, Q8NI35 = target: Inadl_10, Q8NI35
Inadl_10, Q8NI35, sequence (Q8NI35 1673-1763): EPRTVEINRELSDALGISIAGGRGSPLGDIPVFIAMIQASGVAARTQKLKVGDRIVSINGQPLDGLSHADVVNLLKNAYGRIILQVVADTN

MAGI2_4, Q86UL8 = target: MAGI2_4, Q86UL8
MAGI2_4, Q86UL8, sequence (Q86UL8 772-865): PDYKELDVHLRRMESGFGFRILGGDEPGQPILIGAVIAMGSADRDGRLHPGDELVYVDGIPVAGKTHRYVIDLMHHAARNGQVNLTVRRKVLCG

ARHGAP21, Q5T5U3 = target: T5, ARHGAP21, Q5T5U3
GRIP2_4, Q9C0E4 = target: GRIP2_4, Q9C0E4
GRIP2_4, Q9C0E4, sequence (Q9C0E4 446-548): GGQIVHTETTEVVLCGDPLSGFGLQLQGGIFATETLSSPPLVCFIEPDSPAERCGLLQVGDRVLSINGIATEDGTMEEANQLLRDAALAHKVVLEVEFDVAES

GRIP2_5, Q9C0E4 = target: GRIP2_5, Q9C0E4
GRIP2_5, Q9C0E4, sequence (Q9C0E4 544-642): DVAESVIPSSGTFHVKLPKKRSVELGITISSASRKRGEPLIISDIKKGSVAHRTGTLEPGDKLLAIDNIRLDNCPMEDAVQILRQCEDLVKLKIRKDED

IL16_3, Q14005 = target: IL16_3, Q14005
IL16_3, Q14005, sequence (Q14005 1107-1207): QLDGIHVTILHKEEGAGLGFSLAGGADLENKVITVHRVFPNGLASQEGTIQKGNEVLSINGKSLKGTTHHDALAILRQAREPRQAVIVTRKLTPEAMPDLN

IL16_1, Q14005 = target: IL16_1, Q14005
IL16_1, Q14005, sequence (Q14005 210-306): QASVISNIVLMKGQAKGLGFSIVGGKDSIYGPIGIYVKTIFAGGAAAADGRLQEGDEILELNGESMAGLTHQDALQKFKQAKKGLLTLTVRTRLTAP

PDZRN3_1, Q9UPQ7 = target: T6, PDZRN3_1, Q9UPQ7
APBA2_2, Q99767 = target: T7, APBA2_2, Q99767
GRIP2_3, Q9C0E4 = target: GRIP2_3, Q9C0E4
GRIP2_3, Q9C0E4, sequence (Q9C0E4 238-339): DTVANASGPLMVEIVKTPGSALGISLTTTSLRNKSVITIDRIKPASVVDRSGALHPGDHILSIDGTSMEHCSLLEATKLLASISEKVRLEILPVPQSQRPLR

NHERF3_1, Q5T2W1 = target: T8, NHERF3_1, Q5T2W1
MPP2, Q14168 = target: T9, MPP2, Q14168
LNX2_3, Q8N448 = target: T10, LNX2_3, Q8N448

Binder	pKd (GRID2IP_2, A4D2P6)	pKd (LNX1_1, Q8TBB1)	pKd (APBA1_2, Q02410)	pKd (GRIP2_6, Q9C0E4)	pKd (SNTG1, Q9NSN8)	pKd (MPP7, Q5T2T1)	pKd (DLG1_1, Q12959)	pKd (LNX1_3, Q8TBB1)	pKd (FRMPD4, Q14CM0)	pKd (SCRIB_3, Q14160)	pKd (MAGI2_5, Q86UL8)	pKd (PTPN3, P26045)	pKd (PCLO, Q9Y6V0)	pKd (DLG4_2, P78352)	pKd (TJP1_3, Q07157)	pKd (Inadl_10, Q8NI35)	pKd (MAGI2_4, Q86UL8)	pKd (ARHGAP21, Q5T5U3)	pKd (GRIP2_4, Q9C0E4)	pKd (GRIP2_5, Q9C0E4)	also measured
B1	below the threshold	3.73	4.45	below the threshold	below the threshold	below the threshold	below the threshold	3.74	3.57	below the threshold	below the threshold	below the threshold	below the threshold	3.56	below the threshold	below the threshold	3.68	3.99	below the threshold	below the threshold	pKd (IL16_3, Q14005): below the threshold; pKd (IL16_1, Q14005): below the threshold; pKd (PDZRN3_1, Q9UPQ7): below the threshold; pKd (APBA2_2, Q99767): 3.62; pKd (GRIP2_3, Q9C0E4): below the threshold; pKd (NHERF3_1, Q5T2W1): 4.26; pKd (MPP2, Q14168): below the threshold; pKd (LNX2_3, Q8N448): below the threshold
B2	4.54	4.48	4	below the threshold	4.33	below the threshold	3.84	below the threshold	below the threshold	3.97	4.78	4.86	below the threshold	4.74	below the threshold	below the threshold	3.72	below the threshold	below the threshold	below the threshold	pKd (IL16_3, Q14005): below the threshold; pKd (IL16_1, Q14005): 4.72; pKd (PDZRN3_1, Q9UPQ7): below the threshold; pKd (APBA2_2, Q99767): below the threshold; pKd (GRIP2_3, Q9C0E4): below the threshold; pKd (NHERF3_1, Q5T2W1): below the threshold; pKd (MPP2, Q14168): below the threshold; pKd (LNX2_3, Q8N448): below the threshold
B3	below the threshold	below the threshold	3.59	below the threshold	below the threshold	below the threshold	below the threshold	below the threshold	4.12	3.71	below the threshold	below the threshold	below the threshold	below the threshold	below the threshold	below the threshold	below the threshold	4	below the threshold	below the threshold	pKd (IL16_3, Q14005): below the threshold; pKd (IL16_1, Q14005): below the threshold; pKd (PDZRN3_1, Q9UPQ7): below the threshold; pKd (APBA2_2, Q99767): below the threshold; pKd (GRIP2_3, Q9C0E4): below the threshold; pKd (NHERF3_1, Q5T2W1): 3.82; pKd (MPP2, Q14168): below the threshold; pKd (LNX2_3, Q8N448): below the threshold
B4	4.15	4.09	3.9	3.54	4.36	below the threshold	4.49	below the threshold	3.47	4.35	4.68	4.79	below the threshold	4.66	3.48	below the threshold	3.95	4.21	below the threshold	below the threshold	pKd (IL16_3, Q14005): below the threshold; pKd (IL16_1, Q14005): 3.59; pKd (PDZRN3_1, Q9UPQ7): 4.2; pKd (APBA2_2, Q99767): below the threshold; pKd (GRIP2_3, Q9C0E4): below the threshold; pKd (NHERF3_1, Q5T2W1): 4.57; pKd (MPP2, Q14168): below the threshold; pKd (LNX2_3, Q8N448): below the threshold
